Entries after “also recorded” stand apart in the source; their conditions may differ.

One assay deals with GST-Bcl-XL (Homo sapiens, UniProt Q07817). The assay is described as follows: GST-Bcl-XL binding (glutathione bead pull-down) of BAD. Particulars: whole cell lysate of COS-7 cells, glutathione bead precipitation, anti-HA blot. Here is the method:
In order to test whether the additional and novel phosphorylation site on BAD has functional significance, the effect on BAD binding to Bcl-XL was examined. Recombinant Bcl-XL tagged with the glutathione S-transferase (“GST”) moiety (“GST-Bcl-XL”) was incubated with WCL prepared from COS-7 cells expressing the double mutant HA-BAD S112A/S136A, and the HA-BAD S112A/S136A that bound to the GST-Bcl-XL was precipitated with GST beads. […] No HA-BAD S112A/S136A was precipitated with GST beads from the WCL that were not incubated with GST-Bcl-XL (FIG. 1, lane 4).
The ability of full-length BAD and mutant BAD S155A to bind Bcl-XL was also determined (FIG. 3(c)). Full-length BAD (“WT”) and mutant BAD S155A (“S155A”) were produced by in vitro translation and labeled with ^35S-methionine therein. […] Proteins bound to the beads (“Bound”) (lower panel) and samples of the reactions collected prior to incubation with the beads (“Total”) (upper panel) were analyzed by SDS-PAGE followed by autoradiography.
For Bcl-XL binding studies, GST-Bcl-XL (1 mg/ml final concentration) was added to cell lysates derived from BAD expressing cells, and incubated with rotation for two hours at 4° C. […] The beads were then washed with RIPA buffer, the proteins were separated by SDS-PAGE and associated BAD detected by probing the blot with anti-HA antibody.

For the next assay, the system named is HeLa cells. The assay is described as follows: Fluorescence-based beta-galactosidase assay of BAD-induced cell death in transfected HeLa cells. Also noted: species or system human. The settings on record: SFM vs SFM+EGF, 12 hours. Here is the method: FIG. 12(B) is a graphic representation of the results of a β-galactosidase assay. HeLa cells were co-transfected with the β-galactosidase gene and either HA-BAD (“WT”), HA-BAD S155A (“S155A”), HA-BAD S112A/S136A (“S112A/S136A”) or HA-BAD S112A/S136A/S155A (“AAA”). Transfected cells were then cultured in serum-free medium (SFM) or SFM supplemented with EGF (SFM+EGF) for 12 hours. Cell lysates were prepared and BAD-induced cell death was measured by the loss of β-galactosidase activity in a fluorescence-based assay. Fluorescence was measured at 465 nm. Results shown are the average and standard deviation of triplicate transfections (this experiment was repeated two more times with similar results). Expression levels of HA-tagged BAD and BAD mutants in transfected cell lysates were detected by anti-HA western blot analysis: HA-BAD (“WT”), HA-BAD S155A (“A”), HA-BAD S112A/S136A (“AA”), and HA-BAD S112A/S136A/S155A (“AAA”).
FIG. 12(C) is a graphic representation of the results of a β-galactosidase assay. HeLa cells were co-transfected with the β-galactosidase gene and either an empty vector (“CTL”), wild-type BAD (“WT”), the BAD S155A mutant (“S155A”) or the BAD S155D mutant (“S155D”). Cell lysates were prepared and BAD-induced cell death was measured by the loss of β-galactosidase activity in a fluorescence-based assay. Fluorescence was measured at 465 nm. Results shown are the average and standard deviation of triplicate transfections (this experiment was repeated two more times with similar results).
HeLa cells were co-transfected with the β-galactosidase gene and either wild-type BAD, BAD S155A, BAD S112A/S136A or BAD S112A/S136A/S155A. […] Cell lysates were prepared and BAD-induced cell death was measured by the loss of β-galactosidase activity in a fluorescence-based assay. […]
To measure β-gal activity, HeLa cells were plated in 12-well plates at 5×10^4 cells/well one day prior to transfection. […] Beta-gal activity was measured in extracts using a fluorogenic substrate (MUG, BIO-RAD FluorAce™ β-gal Reporter Assay, #170–3150). […]

Assay [1] has as its system BAD phosphorylation in COS-7 cells. In words: BAD phosphorylation in COS-7 cells (western blot band-shift). In kind it is cell-based. Particulars: anti-HA western blot, listed as HA-BAD S112A/S136A. The text has this: Mouse FL5.12 cells were then transfected with the expression vector encoding the shorter murine BAD of SEQ ID NO:3 or one of the three BAD mutants. Total mRNA was isolated from the transfected FL5.12 cells, and reverse transcribed into cDNA. The cDNA was then subcloned into the expression vector pcDNA3 so that the amino acid sequence of the BAD or mutant BAD, encoded by the subcloned cDNA, was in-frame and operably linked to an N-terminal hemagglutinin (“HA”) epitope encoded by the expression vector. The expression vectors encoding the HA-tagged shorter murine BAD and mutant BAD were expressed in COS-7 cells. Whole cell lysates (“WCL”) were then prepared from the COS-7 cells expressing the polypeptides. The phosphorylation of the shorter murine BAD of SEQ ID NO:3 and mutant BAD were detected by a western blot of the WCL, probed with an anti-HA antibody (“anti-HA antibody”). […] Of note, each of the BAD mutants resolved as a doublet on a 16% SDS-PAGE, even though in the amino acid sequence of each of the BAD mutants one or both of the serines corresponding to Ser112 and Ser136 were mutated, i.e., substituted with alanine. […]
In general terms: Immunoblotting shows a protein as a band on a membrane.

Sequence of GST-Bcl-XL (Q07817 whole entry): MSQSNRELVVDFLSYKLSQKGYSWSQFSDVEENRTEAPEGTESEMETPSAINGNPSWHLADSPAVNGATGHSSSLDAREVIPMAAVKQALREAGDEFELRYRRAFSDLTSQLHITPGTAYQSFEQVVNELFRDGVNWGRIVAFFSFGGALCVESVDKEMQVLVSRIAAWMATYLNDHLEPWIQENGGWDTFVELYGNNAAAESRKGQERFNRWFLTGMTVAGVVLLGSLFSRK

B1: BAD S112A/S136A: mutant of shorter murine BAD, serines corresponding to Ser112 and Ser136 substituted with alanine (protein)
chain: MFQIPEFEPSEQEDASATDRGLGPSLTEDQPGPYLAPGLLGSNIHQQGRAATNSHHGGAGAMETRSRHSAYPAGTEEDEGMEEELSPFRGRSRAAPPNLWAAQRYGRELRRMSDEFEGSFKGLPRPKSAGTATQMRQSAGWTRIIQSWWDRNLGKGGSTPSQ
modifications: left off: small tags and cut ends
notes: mutant of shorter murine BAD, serines corresponding to Ser112 and Ser136 substituted with alanine
With B1, in the assay with GST-Bcl-XL, the “binding to GST-Bcl-XL” value is recorded as “only the lower molecular weight band of the doublet was detected”. In addition, in the assay with HeLa cells, the “effect of EGF stimulation on pro-apoptotic activity of the BAD mutant” value was “also suppressed by EGF stimulation”. The “phosphorylation of expressed BAD mutant (lambda phosphatase-sensitive higher molecular weight band)” value in assay [1] is “phosphatase treatment completely eliminated the higher molecular weight band of the doublet; also recorded: do not eliminate the phosphorylation of BAD”.

The values are drawn from patent US7193044B1, “Compounds and methods for regulating apoptosis, and methods of making and screening for compounds that regulate apoptosis” (Immunogen, Inc., priority 2000, dated 2007).
